From the supplement of paper PMC6757056
± gives the standard deviation of the averaged measurements.

B1: library; a variant is named by its letters at N, in order (parent)
chain: GCUGUCACCGGUGCUUGGUACGUUAUAUUCAGCCGGUCUGAUGAGUCUNNNNNNAGACGAAACAGC

How the values were obtained:
[1] = variants of: B1; assay: normalized RNA/DNA level without ligand (relative to sTRSVctl = 100) (log10 (% of sTRSVctl)); HEK293T overexpressing SLC46A1; higher = less ribozyme self-cleavage, higher mRNA level; conditions: without (6R,S)-folinic acid; ligand present: no
How it was run: (§1)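 Library plasmids carrying ribozyme switches linked to mCherry, or to eGFP in some ligand experiments, were transfected into HEK293T at 4 µg per 6-well well, with any ligand added 1 h earlier. Seventy-two hours on, total RNA was extracted with EDTA and reverse-transcribed, amplified, barcoded and sequenced. RNA level was RNA over DNA reads normalized to a spiked-in non-cleaving sequence or to the top sequences, then scaled and log-transformed. The top set was 25 sequences, the transform was ×100 and log10, and sequences needed ≥100 DNA reads.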

[2] = variants of: B1; assay: normalized RNA/DNA level with ligand (relative to sTRSVctl = 100) (log10 (% of sTRSVctl)); HEK293T overexpressing SLC46A1; ligand concentration (+) RNA-Seq: 6 mM; higher = less ribozyme self-cleavage, higher mRNA level; conditions: with (6R,S)-folinic acid; ligand present: yes
How it was run: as §1

Row | Variant | normalized RNA/DNA level without ligand (log10) [1] | normalized RNA/DNA level with ligand (log10) [2]
1 | GCUGUCACCGGUGCUUGGUACGUUAUAUUCAGCCGGUCUGAUGAGUCUCCGAAAAGACGAAACAGC [CCGAAA] | 2.0005 ± 0.0006 | 2 ± 0.016
2 | GCUGUCACCGGUGCUUGGUACGUUAUAUUCAGCCGGUCUGAUGAGUCUCCGAACAGACGAAACAGC [CCGAAC] | 2.035 ± 0.0081 | 2.02 ± 0.049
3 | GCUGUCACCGGUGCUUGGUACGUUAUAUUCAGCCGGUCUGAUGAGUCUCCGAAUAGACGAAACAGC [CCGAAU] | 2.002 ± 0.013 | 2.019 ± 0.018
4 | GCUGUCACCGGUGCUUGGUACGUUAUAUUCAGCCGGUCUGAUGAGUCUUCGAGAAGACGAAACAGC [UCGAGA] | 2.006 ± 0.0024 | 2.07 ± 0.049
5 | GCUGUCACCGGUGCUUGGUACGUUAUAUUCAGCCGGUCUGAUGAGUCUUCGAGGAGACGAAACAGC [UCGAGG] | 1.938 ± 0.017 | 2 ± 0.025
6 | GCUGUCACCGGUGCUUGGUACGUUAUAUUCAGCCGGUCUGAUGAGUCUUCGAGCAGACGAAACAGC [UCGAGC] | 2.022 ± 0.017 | 2.026 ± 0.011
7 | GCUGUCACCGGUGCUUGGUACGUUAUAUUCAGCCGGUCUGAUGAGUCUGCGAUAAGACGAAACAGC [GCGAUA] | 1.999 ± 0.0087 | 2 ± 0.011
8 | GCUGUCACCGGUGCUUGGUACGUUAUAUUCAGCCGGUCUGAUGAGUCUGCGAUCAGACGAAACAGC [GCGAUC] | 2.039 ± 0.014 | 2.003 ± 0.015
9 | GCUGUCACCGGUGCUUGGUACGUUAUAUUCAGCCGGUCUGAUGAGUCUCCGACAAGACGAAACAGC [CCGACA] | 2.02 ± 0.029 | 2.04 ± 0.035
10 | GCUGUCACCGGUGCUUGGUACGUUAUAUUCAGCCGGUCUGAUGAGUCUCCGACGAGACGAAACAGC [CCGACG] | 2.033 ± 0.013 | 2.0354 ± 0.0001
11 | GCUGUCACCGGUGCUUGGUACGUUAUAUUCAGCCGGUCUGAUGAGUCUCCGACCAGACGAAACAGC [CCGACC] | 2.063 ± 0.0099 | 2.04 ± 0.062
12 | GCUGUCACCGGUGCUUGGUACGUUAUAUUCAGCCGGUCUGAUGAGUCUCCGACUAGACGAAACAGC [CCGACU] | 2.062 ± 0.0038 | 2.01 ± 0.027
13 | GCUGUCACCGGUGCUUGGUACGUUAUAUUCAGCCGGUCUGAUGAGUCUACGAACAGACGAAACAGC [ACGAAC] | 2.02 ± 0.021 | 2.03 ± 0.044
14 | GCUGUCACCGGUGCUUGGUACGUUAUAUUCAGCCGGUCUGAUGAGUCUACGAAUAGACGAAACAGC [ACGAAU] | 1.95 ± 0.021 | 2 ± 0.035
15 | GCUGUCACCGGUGCUUGGUACGUUAUAUUCAGCCGGUCUGAUGAGUCUACGACUAGACGAAACAGC [ACGACU] | 1.997 ± 0.0037 | 2.006 ± 0.017
16 | GCUGUCACCGGUGCUUGGUACGUUAUAUUCAGCCGGUCUGAUGAGUCUUCGAUCAGACGAAACAGC [UCGAUC] | 2.06 ± 0.025 | 2.03 ± 0.026
17 | GCUGUCACCGGUGCUUGGUACGUUAUAUUCAGCCGGUCUGAUGAGUCUACGAGGAGACGAAACAGC [ACGAGG] | 1.86 ± 0.034 | 1.995 ± 0.011
18 | GCUGUCACCGGUGCUUGGUACGUUAUAUUCAGCCGGUCUGAUGAGUCUACGAGCAGACGAAACAGC [ACGAGC] | 2.005 ± 0.012 | 2.041 ± 0.019
19 | GCUGUCACCGGUGCUUGGUACGUUAUAUUCAGCCGGUCUGAUGAGUCUACGAGAAGACGAAACAGC [ACGAGA] | 1.968 ± 0.011 | 2.03 ± 0.028
20 | GCUGUCACCGGUGCUUGGUACGUUAUAUUCAGCCGGUCUGAUGAGUCUACGAGUAGACGAAACAGC [ACGAGU] | 2.027 ± 0.0034 | 2.028 ± 0.0065
21 | GCUGUCACCGGUGCUUGGUACGUUAUAUUCAGCCGGUCUGAUGAGUCUUCGAACAGACGAAACAGC [UCGAAC] | 2.027 ± 0.01 | 2.006 ± 0.0085

Row | Variant | normalized RNA/DNA level without ligand (log10) [1] | normalized RNA/DNA level with ligand (log10) [2]
22 | GCUGUCACCGGUGCUUGGUACGUUAUAUUCAGCCGGUCUGAUGAGUCUUCGAAAAGACGAAACAGC [UCGAAA] | 1.927 ± 0.0063 | 1.979 ± 0.0054
23 | GCUGUCACCGGUGCUUGGUACGUUAUAUUCAGCCGGUCUGAUGAGUCUUCGACGAGACGAAACAGC [UCGACG] | 1.867 ± 0.017 | 1.9974 ± 0.0011
24 | GCUGUCACCGGUGCUUGGUACGUUAUAUUCAGCCGGUCUGAUGAGUCUUCGACCAGACGAAACAGC [UCGACC] | 2.052 ± 0.0052 | 2.04 ± 0.036
25 | GCUGUCACCGGUGCUUGGUACGUUAUAUUCAGCCGGUCUGAUGAGUCUUCGACAAGACGAAACAGC [UCGACA] | 1.999 ± 0.0076 | 2.022 ± 0.0062
26 | GCUGUCACCGGUGCUUGGUACGUUAUAUUCAGCCGGUCUGAUGAGUCUCCGAUUAGACGAAACAGC [CCGAUU] | 2.06 ± 0.051 | 2.053 ± 0.018
27 | GCUGUCACCGGUGCUUGGUACGUUAUAUUCAGCCGGUCUGAUGAGUCUCCGAUAAGACGAAACAGC [CCGAUA] | 1.996 ± 0.0089 | 2.011 ± 0.018
28 | GCUGUCACCGGUGCUUGGUACGUUAUAUUCAGCCGGUCUGAUGAGUCUCCGAUGAGACGAAACAGC [CCGAUG] | 2 ± 0.023 | 1.99 ± 0.036
29 | GCUGUCACCGGUGCUUGGUACGUUAUAUUCAGCCGGUCUGAUGAGUCUCCGAUCAGACGAAACAGC [CCGAUC] | 2.055 ± 0.018 | 2.03 ± 0.03
30 | GCUGUCACCGGUGCUUGGUACGUUAUAUUCAGCCGGUCUGAUGAGUCUGCGACCAGACGAAACAGC [GCGACC] | 2.029 ± 0.0059 | 2.07 ± 0.037
31 | GCUGUCACCGGUGCUUGGUACGUUAUAUUCAGCCGGUCUGAUGAGUCUGCGACGAGACGAAACAGC [GCGACG] | 1.989 ± 0.017 | 2.02 ± 0.045
32 | GCUGUCACCGGUGCUUGGUACGUUAUAUUCAGCCGGUCUGAUGAGUCUGCGACAAGACGAAACAGC [GCGACA] | 2.024 ± 0.015 | 2.05 ± 0.03
33 | GCUGUCACCGGUGCUUGGUACGUUAUAUUCAGCCGGUCUGAUGAGUCUGCGACUAGACGAAACAGC [GCGACU] | 2.051 ± 0.0076 | 2.06 ± 0.04
34 | GCUGUCACCGGUGCUUGGUACGUUAUAUUCAGCCGGUCUGAUGAGUCUACCUUUAGACGAAACAGC [ACCUUU] | 2.071 ± 0.0086 | 2.02 ± 0.021
35 | GCUGUCACCGGUGCUUGGUACGUUAUAUUCAGCCGGUCUGAUGAGUCUCCGAGAAGACGAAACAGC [CCGAGA] | 1.988 ± 0.01 | 2.011 ± 0.0034
36 | GCUGUCACCGGUGCUUGGUACGUUAUAUUCAGCCGGUCUGAUGAGUCUCCGAGUAGACGAAACAGC [CCGAGU] | 2.029 ± 0.014 | 2.03 ± 0.032
37 | GCUGUCACCGGUGCUUGGUACGUUAUAUUCAGCCGGUCUGAUGAGUCUCCGAGGAGACGAAACAGC [CCGAGG] | 2.011 ± 0.006 | 2.01 ± 0.028
38 | GCUGUCACCGGUGCUUGGUACGUUAUAUUCAGCCGGUCUGAUGAGUCUACGAUGAGACGAAACAGC [ACGAUG] | 1.925 ± 0.016 | 2.03 ± 0.031
39 | GCUGUCACCGGUGCUUGGUACGUUAUAUUCAGCCGGUCUGAUGAGUCUACGAUAAGACGAAACAGC [ACGAUA] | 1.971 ± 0.0039 | 2.02 ± 0.036
40 | GCUGUCACCGGUGCUUGGUACGUUAUAUUCAGCCGGUCUGAUGAGUCUGCGAGUAGACGAAACAGC [GCGAGU] | 1.99 ± 0.04 | 2.03 ± 0.051
41 | GCUGUCACCGGUGCUUGGUACGUUAUAUUCAGCCGGUCUGAUGAGUCUGCGAGGAGACGAAACAGC [GCGAGG] | 1.98 ± 0.023 | 2.05 ± 0.046
